Drawing on publication PMC3084716, “Different Conformations of Phosphatase and Tensin Homolog, Deleted on Chromosome 10 (PTEN) Protein within the Nucleus and Cytoplasm of Neurons”, this text covers Kd, binding result and binding signal for two molecules.

The Kd is the equilibrium constant for the complex coming apart.

Where no end group is shown, it is not given here.

For data set [1], the target named is T1, GST-PTEN (amino-terminal phosphatase domain) (Homo sapiens, UniProt P60484 1-200). Kind of data set: filter binding, Scatchard; called affinity constant; Filter binding: 50 mM Tris (pH not given), 1 h, 40 µl, protein 0.5 mg/ml (Fig. 2E: GST-PTEN 25 µM), PBS washes; co-precipitation 1 h at room temperature, 1 µM aptamer; pull-down from homogenate with 250 nM aptamer, salmon sperm DNA, RIPA (1:2)/PBS washes; blots in PBS-BSA 2%. The following applies: protein: recombinant; tags: GST (N-terminal, pGEX2T); label: 5'-biotin or 32P (assay dependent); hairpin; 13 bp stem from the constant regions.
T1 sequence (P60484 1-200): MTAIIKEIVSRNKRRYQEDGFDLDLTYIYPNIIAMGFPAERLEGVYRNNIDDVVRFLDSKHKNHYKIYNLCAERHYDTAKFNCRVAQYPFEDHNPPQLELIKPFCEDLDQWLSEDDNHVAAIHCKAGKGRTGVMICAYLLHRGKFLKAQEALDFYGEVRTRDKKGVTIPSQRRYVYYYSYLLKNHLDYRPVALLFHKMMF

The target in data set [2] is T2, PTEN peptide 33-47 amide (human and mouse (same sequence), UniProt P60484).
T2 chain: IAMGFPAERLEGVYR-NH2
As to the kind of experiment: filter binding; Filter binding: 50 mM Tris (pH not given), 1 h, 40 µl, protein 0.5 mg/ml (Fig. 2E: GST-PTEN 25 µM), PBS washes; co-precipitation 1 h at room temperature, 1 µM aptamer; pull-down from homogenate with 250 nM aptamer, salmon sperm DNA, RIPA (1:2)/PBS washes; blots in PBS-BSA 2%. The note with it: tags: C-terminal amide; label: 5'-biotin or 32P (assay dependent); hairpin; 13 bp stem from the constant regions.

For data set [3], the target named is T2, PTEN peptide 33-47 amide. Kind of data set: co-precipitation on antibody-Sepharose, real-time PCR; peptide bound to anti-PTEN antiserum; 1.8e11 molecules bound; Filter binding: 50 mM Tris (pH not given), 1 h, 40 µl, protein 0.5 mg/ml (Fig. 2E: GST-PTEN 25 µM), PBS washes; co-precipitation 1 h at room temperature, 1 µM aptamer; pull-down from homogenate with 250 nM aptamer, salmon sperm DNA, RIPA (1:2)/PBS washes; blots in PBS-BSA 2%. The following applies: tags: C-terminal amide; label: 5'-biotin or 32P (assay dependent); hairpin; 13 bp stem from the constant regions. Background: In qPCR the cycle at which signal appears reflects the starting amount.

The target of data set [4] is T1, GST-PTEN (amino-terminal phosphatase …). As to the kind of experiment: filter binding, Scatchard; data not shown; Filter binding: 50 mM Tris (pH not given), 1 h, 40 µl, protein 0.5 mg/ml (Fig. 2E: GST-PTEN 25 µM), PBS washes; co-precipitation 1 h at room temperature, 1 µM aptamer; pull-down from homogenate with 250 nM aptamer, salmon sperm DNA, RIPA (1:2)/PBS washes; blots in PBS-BSA 2%. The following applies: protein: recombinant; tags: GST (N-terminal, pGEX2T); label: 5'-biotin or 32P (assay dependent); hairpin; 13 bp stem from the constant regions.

B1: PTENz7 (structured_DNA)
DNA: CGGAATTCCGAGCGTGGGCGTGGTCATACCGCGCCTATCGAACTCGCCACTCGCGTGCAGCTCTGTGTAGGTACGCCCACGCTCGAG
Take B1: the Kd in data set [1] worked out at 75 nM. In the data set with PTEN peptide 33-47 amide [2], the binding result is “binds”.

B2: PTENz14 (structured_DNA)
DNA: CGGAATTCCGAGCGTGGGCGTGAGCCCTAAACACAAGTCCGCAGGGGTGTGGTAATATTCGCAGTTGTGTGTACGCCCACGCTCGAG
B2: the binding signal with PTEN peptide 33-47 amide [3] was roughly 20 fold over background. Besides, in data set [4], the Kd worked out at 54 nM.
